In the DeepSol protein solubility set:

Test: soluble on expression in E. coli; label from the status in PepcDB or PDB records

Sequence	soluble on expression in E. coli
MGSDKIHHHHHHMSMEAASLDAVSEEQAQSVSILEQAIFATKQTDSSRAEELIRSLTEEALKGTVQWDKNLTVTFNKAITRLDDIISKQLAAIMHNEELQKLEGSWRGLHHTVKNSETNETLKIRVMSLSKKELHKDLSKAVEFDQSQMFKKIYEAEFGTPGGEPYGCLVGDYEFSNHPEDVETLSLISNVAAAGFCPFVSAAGSSLFGFDEWTELSKPRDLEKVFESLEYTQWRSFRDSDDSRFVTLTMPRVLARLPYGEATKPVEEFCYEEFELDLESGRAKVADHDDYCWMNAAYVMATNMGQAFSKYGFCTAIRGAEGGGKVEGLPAHVFTSDDGDPDLKCPTEIGITDRREAELSKLGFLPLCHYKHTDYAVFFGSQSCQKPKIMSNHDATANAAISARLPYLMATSRFAHYLKVMARDKIGSFMEAEDVESWLNRWILSFVNASEGGGQEIRAKYPLADAKVEVKEIPGQPGSYNAVAWLRPWLQMEELTASLRLVAKIPKVG	not soluble
MASAEVVSKLEAAFAKLQNASDCHSLLKKYLTKEVFDQLKGKQTKMGATLMDVIQSGVENLDSGIGVYAPDAESYTLFAALLDPIIEDYHKGFKPSDKQPPKDSGDLNTFIDVDPDKKYVISTRVRCGRSLEGYPFNPCLKKQQYEEMESRVKGQLESMSGELRGKYYPLTGMTKETQKQLIDDHFLFKEGDRFLQAAHACKFWPTGRGIYHNDAKTFLVWVNEEDHLRIISMQKGGNLKEVFGRLVTAVGVIEEKVKFSRDDRLGFLTFCPTNLGTTIRASVHIKLPKLGADRKKLEEVAAKYNLQVRGTAGEHSDSPDGVYDISNKRRLGLSEYEAVKEMQDGILELIKAEESAR	soluble
MKPNIHPEYRTVVFHDTSVDEYFKIGSTIKTDREIELDGVTYPYVTIDVSSKSHPFYTGKLRTVASEGNVARFTQRFGRFVSTKKGA	soluble
MKYDLTTQDSTIKRNNSINDKDFEKLVMDLQPLIIRRIKTFGFNHYDLEDLYQEILIRMYRSVQTFDFSGEQPFTNYVQCLITSVKYDYLRKYLATNKRMDNLINEYRVTYPCAIKRFDVENNYLNKLAIKELICQFKYLSAFEKDVMYLMCEQYKPREIAQLMHVKEKVIYNAIQRCKNKIKRYFKMI	not soluble
DPDTRIPVINLEDGTRLVGEDAPKNKDLVEWLKLHPTYTVDMPSYVPKNADVLFSSFQKPKQKRHRCRNPNKLDINTLTGEERVPVVNKRNGKKMGGAMAPPMKDLPRWLEENPEFAVAPDWTD	soluble
MGSDKIHHHHHHMTNLLSVRDLSIALCQGQEQRYILEKVTFEIKEGETVALVGESGSGKSVTALSILQLLPFLKTLYQSGEILFNDKDLLKQKEEDLRKVRGKDIAMIFQEPMTALNPLHNVERQIGEVLKMHSDMTNQSLRAHIIDLLTQVGIHEPQKRLGSFPHELSGGQRQRVMIAMALANNPRLLIADEPTTALDVTVQARILELLVHLKKQNNMSMLFITHNLAIVRCIADRVYVMRKGKIVESAPIDQLFANAQKPYTKQLLAAEPKGYPLQADKSAPILMQGKKVRVWFPIKKGLLRRTKGYIKAVQDMDVTIRVGQTLGVVGESGSGKTTLGLSLIRMLSSKGQIIFDDIDISNFTFKKMRSLRRHIQIVFQDPFGSLSPRMSVSEIIAEGLSIHEPKLSYSERNDRVIEALHEVNLDPSTRYRYPHEFSGGQRQRIALARAIILKPRFIMLDEPTSSLDVSVQAQIISLLLHLQKKYHLGYLFISHDLKVIKALAHEVIVMRNGEMVEYGSADRIFSCPQNTYTQSLMAAAFALESDRL	not soluble
MLCEIECRALSTAHTRLIHDFEPRDALTYLEGKNIFTEDHSELISKMSTRLERIANFLRIYRRQASELGPLIDFFNYNNQSHLADFLEDYIDFAINEPDLLRPVVIAPQFSRQMLDRKLLLGNVPKQMTCYIREYHVDRVIKKLDEMCDLDSFFLFLHGRAGSGKSVIASQALSKSDQLIGINYDSIVWLKDSGTAPKSTFDLFTDILLMLKSEDDLLNFPSVEHVTSVVLKRMICNALIDRPNTLFVFDDVVQEETIRWAQELRLRCLVTTRDVEISNAASQTCEFIEVTSLEIDECYDFLEAYGMPMPVGEKEEDVLNKTIELSSGNPATLMMFFKSCEPKTFEKMAQLNNKLESRGLVGVECITPYSYKSLAMALQRCVEVLSDEDRSALAFAVVMPPGVDIPVKLWSCVIPVDICSNEEEQLDDEVADRLKRLSKRGALLSGKRMPVLTFKIDHIIHMFLKHVVDAQTIANGISILEQRLLEIGNNNVSVPERHIPSHFQKFRRSSASEMYPKTTEETVIRPEDFPKFMQLHQKFYDSLKNFACC	soluble
GPGSMDDRSLKLAEDFVSARYIDAGRESLRSTARILRSILAQRCCPDEGLTDAAIELILRQLSLMDTNNFARHVGGGEREGRVVSALVRMRHFHLTHGVGRSGDLFSEQPKAAGSSLLYKITNVLMLDLIRQAGAPSTAAAVVVPMA	not soluble
MGSDKIHHHHHHMNLTELMERIPHLREILNIVREAFKDYDDPAHDISHTFRVMENASEIASREKCDLQKAIIAALLHDIKRPHEALTGVDHAESGAEYASGLLPTMGFDISFVAEVSKAIRSHRYSGGLTPTSLTGKILQDADRLDAIGAVAIARVFSYSGKTGTPLHSLQFSPRSSYSGNSRSSINHFHEKILKIRPETFWTETARKMAEDRYSFVVEFVQRFLAEWGQI	not soluble
MAHHHHHHMDSQGPFLVIPTKRGAVPTLTPAQANAILEPSERILATSVFEAMDFVKPCIEAGMQLSTYCGLSGYKTVLTLRSSFQGLHASASSSDTAVAGDNERGRAVISFEKWRDVVKATRPTFAVAVHESLPLCEPLNKRRRVAATRSETWLANTEEASDLGCTILPSISAGCTHDGGYIDAVPRGENSYEFFQTLQALQLSPKKCTMCVAPSISVLLAAMVSNVSLLECPLPWTLAEKGVALLLPLEEATTTSPEPVVPLLDLNDNVYALDINPIAEGCDCFTCKRHCRAYLHHLLTVQEMNSDILLVMHNLAQVVLLVRAYRCASAPTREALVSRVASAL	not soluble
RPHVVKVYSEDGACRSVEVAAGATARHVCEMLVQRAHALSDETWGLVECHPHLALERGLEDHESVVEVQAAWPVGGDSRFVFRKNFA	soluble
MSDPLTAQEQHKRRQAVRELMPRTPFIGGLGIVFERYEPDDVVIRLPFRTDLTNDGTYFHGGVIASVMDTAGAAAAWSNHDFDRGTRAATVAMSIQYTGAAKRCDLLCHARTARRRKELTFTEITATDPDGNIVAHAVQTYRIV	not soluble
MGSDKIHHHHHHMDFDMIEEKKDSVIVRNVENFELKDIFDCGQCFRWHRQENGNYIGIAFEKVVEVQKIGEDVVIYNINEEEFKNVWSEYFDLYRDYGEIKKELSRDPLLKKSVDFGEGIRILRQDPFEILLSFIISANNRIPMIKKCINNISEKAGKKLEYKGKIYYAFPTVDKLHEFTEKDFEECTAGFRAKYLKDTVDRIYNGELNLEYIKSLNDNECHEELKKFMGVGPKVADCIMLFSMQKYSAFPVDTWVKKAMMSLYVAPDVSLKKIRDFGREKFGSLSGFAQQYLFYYARENNIQL	not soluble
MRDLLNDLSEGLSHPDPILRAQIQMQKPLPKRFYKDVTVADVEEGGFTILLDGKPLRTPAKKPLVAPSRALADLLRDEWDAQKEVVNPVVMPVSRHVNTAIDGIASDTQAVFEDILRFSSSDLLCYRAGDPEALVARQTDYWDPVLDWATNVLGARFILVEGVMHRDQPREAIAAFAVTLKKYDTPIALAALHTMTSLTGSAILALALAEGELTLEEAWALAHLDEDWTAEQWGEDEEALERRAVRLIDMRAALNVLESLKSAS	soluble
MPLQQTLGVDCQTAADAGGEPHCFAGPVRERRMDSVLVIGGGRFIGRHTVTEFRDAGYDVTMLTRGRRQNPFTNAEVAHIEGDRRERDTLETARERVNPDVVVDCVAYFPEDVRVATDVFADVGAYVYISSGAAYGAERTPKREGETPLAGCTAEQATTDSAETYGPRKAEGDREVFAAAEDGVQAMSVRPTVVYGPYDYTERFAYWVDRVAEYDRVVVPSDGLSLWQMAYVEDVASALRLVAERGTAGEAYNVGDEHAPTLREWVDLLARVHETDVETIGVGERELRAAGLAPDDFPIYRDSPHLLSTAKLRGLGWSSTPHETALAVTVAEHLENDRTGREFGPDRDTEAALIDRLTE	not soluble
SCRRAFDLYFVLDKSGSVANNWIEIYNFVQQLAERFVSPEMRLSFIVFSSQATIILPLTGDRGKISKGLEDLKRVSPVGETYIHEGLKLANEQIQKAGGLKTSSIIIALTDGKLDGLVPSYAEKEAKISRSLGASVYCVGVLDFEQAQLERIADSKEQVFPVKGGFQALKGIINSILAQSC	soluble
MCKSCYHCGEDVPANTDFKVEILGEVREMCCPGCETVAQTIVDSGLVSYYQYRTAPAEKADLVPEQLQALIHYDNEDVQSEFVRNHDN	not soluble
MSNKFHCDVCSADCTNRVRVSCAICPEYDLCVPCFSQGSYTGKHRPYHDYRIIETNSYPILCPDWGADEELQLIKGAQTLGLGNWQDIADHIGSRGKEEVKEHYLKYYLESKYYPIPDITQNIHVPQDEFLEQRRHRIESFRERPLEPPRKPMASVPSCHEVQGFMPGRLEFETEFENEAEGPVKDMVFEPDDQPLDIELKFAILDIYNSRLTTRAEKKRLLFENHLMDYRKLQAIDKKRSKEAKELYNRIKPFARVMTAQDFEEFSKDILEELHCRARIQQLQEWRSNGLTTLEAGLKYERDKQARISSFEKFGASTAASLSEGNSRYRSNSAHRSNAEYSQNYSENGGRKKNMTISDIQHAPDYALLSNDEQQLCIQLKILPKPYLVLKEVMFRELLKTGGNLSKSACRELLNIDPIKANRIYDFFQSQNWM	soluble
MPPMRSKATQWLLSVWGLMDPLYYACSRLEYVGGKENGCRSIFRVRLLRYKGETIHLSDGTTIAANDWLLKIHLHNVRLLCELMQYRSDIQKGRYIFEQVKAGLPHVAHHLYHHEQSSSIKGIIGVTMLNKGCERLGFDVIDIANSFYRWFKMASHWPMMTVAQHRLVPLVRPPKYLVMSKEKLFSLYGCHLIH	not soluble
PAIDYKTAFHLAPIGLVLSRDRVIEDCNDELAAIFRCARADLIGRSFEVLYPSSDEFERIGERISPVMIAHGSYADDRIMKRAGGELFWCHVTGRALDRTAPLAAGVWTFEDLSATRRVA	soluble
SGAMYIDCDGIKLNAYLDMPKNNPEKCPLCIIIHGFTGHSEERHIVAVQETLNEIGVATLRADMYGHGKSDGKFEDHTLFKWLTNILAVVDYAKKLDFVTDIYMAGHSQGGLSVMLAAAMERDIIKALIPLSPAAMIPEIARTGELLGLKFDPENIPDELDAWDGRKLKGNYVRVAQTIRVEDFVDKYTKPVLIVHGDQDEAVPYEASVAFSKQYKNCKLVTIPGDTHCYDHHLELVTEAVKEFMLEQIAK	soluble
MGSDKIHHHHHHMSLHAPTFSKLFSGVIWKIIADSDTGTVYVETRDGDKRKALFHAFDLQAKKMLWADVSILDAWWSSLKIANKGNLLVVKFNDPDMPEQRGFAVIDGKTSKLLWGKDDAQVMQAEPDGIIVAEGKEEDSSYLKLDWAAGKTLGAVSVKEMFSGFNKKAQTRSFVLYPFHFEEENSFFSKIKEYIEIITGHKAVRMIEYLEKGDKVLISYYIYEEEKLTNFILVADEKGALLVHEKLNAGLKGIGMDTFFVLKDQLIVVKNNNELQSYVIK	not soluble
